This is an account of results in the RNAGym collection of RNA variant scans (doi:10.1093/molbev/msab373).

B1: Azoarcus group I ribozyme (parent)
chain: GUGCCUUGCGCCGGGAAACCACGCAAGGGAUGGUGUCAAAUUCGGCGAAACCUAAGCGCCCGCCCGGGCGUAUGGCAACGCCGAGCCAAGCUUCGGCGCCUGCGCCGAUGAAGGUGUAGAGACUAGACGGCACCCACCUAAGGCAAACGCUAUGGUGAAGGCAUAGUCCAGGGAGUGGCGAAAGUCACACAAACCGG

In the series the parent is B1. In words: reverse-splicing fitness (ratio to wild type); higher = more active; in vitro selection; Mg2+ level not given. An outline of the steps:
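An in vitro group I ribozyme library with randomized positions was T7-transcribed and gel-purified. In triplicate, 10 pmol RNA in EPPS pH 7.5 was reacted with 50 pmoles of a 30-nt RNA substrate for 1 h at 37 °C across several added MgCl2 levels (1–48 mM), then stopped with EDTA. Products were reverse transcribed from a substrate-complementary primer, PCR-amplified and sequenced (HiSeq 4000). Fitness is a variant's read proportion after selection over that before, normalised to wild type.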
Consider GUGCCUUGCGCCGGGAAACCACGCAAGGGAUGGUGUCAAAUUCGGCGAAACCUAAGCGCCCGCCCGGGCGUAUGGCAACGCAGAGCCAAGCUUCGGCGCCUGCGCCGAUGAAGGUGUAGCGACUAGACGGCACCCACCUAAGGCUAACGUUAUGGUGAAGGCAUAGUCAAGGGAGGGGCGAAAGUCACACAAACCGG [C82A A120C A145U C150U C169A U176G], for which the reverse-splicing fitness was found to be 0.00539.
As for GUGCCUUGCGCCGGGAAACCACGCAAGGGAUGGUGUCAAAUUCGGCGAAACCUAAGCGCCCGCCCGGGCGUAUGGCAACGCGGAGCCAAGCUUCGGCGCCUGCGCCGAUGCAGGUGUAGAGACUAGACGGCACCCACCUAAGGCAAACGGUAUGGUGAAGGCAUAGUCGAGGGAGUGGCGAAAGUCACACAAACCGG [C82G A111C C150G C169G], the figure is 0.00655; as for GUGCCUUGCGCCGGGAAACCACGCAAGGGAUGGUGUCAAAUUCGGCGAAACCUAAGCGCCCGCCCGGGCGUAUGGCAACGCAGAGCCAAGCUUCGGCGCCUGCGCCGAUGUAGGUGUAGGGACUAGACGGCACCCACCUAAGGCAAACGAUAUGGUGAAGGCAUAGUCAAGGGAGAGGCGAAAGUCACACAAACCGG [C82A A111U A120G C150A C169A U176A], 0.0214.
As for GUGCCUUGCGCCGGGAAACCACGCAAGGGAUGGUGUCAAAUUCGGCGAAACCUAAGCGCCCGCCCGGGCGUAUGGCAACGCAGAGCCAAGCUUCGGCGCCUGCGCCGAUGCAGGUGUAGAGACUAGACGGCACCCACCUAAGGCUAACGCUAUGGUGAAGGCAUAGUCUAGGGAGCGGCGAAAGUCACACAAACCGG [C82A A111C A145U C169U U176C], the figure is 0.0144; as for GUGCCUUGCGCCGGGAAACCACGCAAGGGAUGGUGUCAAAUUCGGCGAAACCUAAGCGCCCGCCCGGGCGUAUGGCAACGCGGAGCCAAGCUUCGGCGCCUGCGCCGAUGAAGGUGUAGAGACUAGACGGCACCCACCUAAGGCAAACGAUAUGGUGAAGGCAUAGUCAAGGGAGUGGCGAAAGUCACACAAACCGG [C82G C150A C169A], 0.00956.
On to GUGCCUUGCGCCGGGAAACCACGCAAGGGAUGGUGUCAAAUUCGGCGAAACCUAAGCGCCCGCCCGGGCGUAUGGCAACGCAGAGCCAAGCUUCGGCGCCUGCGCCGAUGCAGGUGUAGCGACUAGACGGCACCCACCUAAGGCAAACGUUAUGGUGAAGGCAUAGUCCAGGGAGGGGCGAAAGUCACACAAACCGG [C82A A111C A120C C150U U176G], for which the reverse-splicing fitness worked out at 0.0074.
As for GUGCCUUGCGCCGGGAAACCACGCAAGGGAUGGUGUCAAAUUCGGCGAAACCUAAGCGCCCGCCCGGGCGUAUGGCAACGCGGAGCCAAGCUUCGGCGCCUGCGCCGAUGAAGGUGUAGGGACUAGACGGCACCCACCUAAGGCCAACGUUAUGGUGAAGGCAUAGUCGAGGGAGUGGCGAAAGUCACACAAACCGG [C82G A120G A145C C150U C169G], the reverse-splicing fitness is 0.0163.
In the case of GUGCCUUGCGCCGGGAAACCACGCAAGGGAUGGUGUCAAAUUCGGCGAAACCUAAGCGCCCGCCCGGGCGUAUGGCAACGCAGAGCCAAGCUUCGGCGCCUGCGCCGAUGUAGGUGUAGGGACUAGACGGCACCCACCUAAGGCCAACGUUAUGGUGAAGGCAUAGUCCAGGGAGGGGCGAAAGUCACACAAACCGG [C82A A111U A120G A145C C150U U176G], the reverse-splicing fitness amounted to 0.00589.
As for GUGCCUUGCGCCGGGAAACCACGCAAGGGAUGGUGUCAAAUUCGGCGAAACCUAAGCGCCCGCCCGGGCGUAUGGCAACGCGGAGCCAAGCUUCGGCGCCUGCGCCGAUGCAGGUGUAGUGACUAGACGGCACCCACCUAAGGCAAACGUUAUGGUGAAGGCAUAGUCCAGGGAGCGGCGAAAGUCACACAAACCGG [C82G A111C A120U C150U U176C], the reverse-splicing fitness came to 0.0132.
As for GUGCCUUGCGCCGGGAAACCACGCAAGGGAUGGUGUCAAAUUCGGCGAAACCUAAGCGCCCGCCCGGGCGUAUGGCAACGCAGAGCCAAGCUUCGGCGCCUGCGCCGAUGAAGGUGUAGAGACUAGACGGCACCCACCUAAGGCAAACGAUAUGGUGAAGGCAUAGUCUAGGGAGCGGCGAAAGUCACACAAACCGG [C82A C150A C169U U176C], the figure is 0.0166; as for GUGCCUUGCGCCGGGAAACCACGCAAGGGAUGGUGUCAAAUUCGGCGAAACCUAAGCGCCCGCCCGGGCGUAUGGCAACGCUGAGCCAAGCUUCGGCGCCUGCGCCGAUGAAGGUGUAGAGACUAGACGGCACCCACCUAAGGCUAACGAUAUGGUGAAGGCAUAGUCCAGGGAGGGGCGAAAGUCACACAAACCGG [C82U A145U C150A U176G], 0.0221.
As for GUGCCUUGCGCCGGGAAACCACGCAAGGGAUGGUGUCAAAUUCGGCGAAACCUAAGCGCCCGCCCGGGCGUAUGGCAACGCGGAGCCAAGCUUCGGCGCCUGCGCCGAUGAAGGUGUAGCGACUAGACGGCACCCACCUAAGGCCAACGCUAUGGUGAAGGCAUAGUCCAGGGAGCGGCGAAAGUCACACAAACCGG [C82G A120C A145C U176C], the figure is 0.0842.
As for GUGCCUUGCGCCGGGAAACCACGCAAGGGAUGGUGUCAAAUUCGGCGAAACCUAAGCGCCCGCCCGGGCGUAUGGCAACGCGGAGCCAAGCUUCGGCGCCUGCGCCGAUGCAGGUGUAGCGACUAGACGGCACCCACCUAAGGCUAACGAUAUGGUGAAGGCAUAGUCCAGGGAGCGGCGAAAGUCACACAAACCGG [C82G A111C A120C A145U C150A U176C], the figure is 0.0153.
Turning to GUGCCUUGCGCCGGGAAACCACGCAAGGGAUGGUGUCAAAUUCGGCGAAACCUAAGCGCCCGCCCGGGCGUAUGGCAACGCUGAGCCAAGCUUCGGCGCCUGCGCCGAUGCAGGUGUAGAGACUAGACGGCACCCACCUAAGGCCAACGAUAUGGUGAAGGCAUAGUCUAGGGAGCGGCGAAAGUCACACAAACCGG [C82U A111C A145C C150A C169U U176C], the reverse-splicing fitness worked out at 0.0106.
As for GUGCCUUGCGCCGGGAAACCACGCAAGGGAUGGUGUCAAAUUCGGCGAAACCUAAGCGCCCGCCCGGGCGUAUGGCAACGCUGAGCCAAGCUUCGGCGCCUGCGCCGAUGCAGGUGUAGCGACUAGACGGCACCCACCUAAGGCUAACGGUAUGGUGAAGGCAUAGUCUAGGGAGCGGCGAAAGUCACACAAACCGG [C82U A111C A120C A145U C150G C169U U176C], the figure is 0.0132.
